The record followed here is patent publication US20190338028A1 (PROMAB BIOTECHNOLOGIES, published 2019).

This experiment addresses T1, CD47 on human cancer cells and in human tumor and normal tissue samples (human, UniProt Q08722 19-323).
T1 construct: whole, on cells; also called CD47 antigen; CD47 tumor antigen
Briefly: IHC staining of tumor and normal tissue samples.

B1: humanized CD47 ScFv fused in frame with C-terminal human Fc (scFv)
scFv: EVQLVESGGGLVQPGGSLRLSCAASGFTFSGYGMSWVRQAPGKGLEWVATITSGGTYTYYPDSVKGRFTISRDNAKNSLYLQMNSLRAEDTAVYYCARSLAGNAMDYWGQGTLVTVSSGGGGSGGGGSGGGGSEIVLTQSPATLSLSPGERATLSCRASQSISDYLHWYQQKPGQAPRLLIYFASQRATGIPARFSGSGSGTDFTLTISSLEPEDFAVYYCQQGHGFPRTFGGGTKVEIK
notes: also called humanized anti-CD47 scFv; not shown: C-terminal human Fc from pYD11 vector
Regarding B1, the binding result is “binds”.
